Reference: US20160145598
Where two headings read alike, the source gives them in different places.

B1: plasma factor X (protein)
chain 1: ANSFLEEMKKGHLERECMEETCSYEEAREVFEDSDKTNEFWNKYKDGDQCETSPCQNQGKCKDGLGEYTCTCLEGFEGKNCELFTRKLCSLDNGDCDQFCHEEQNSVVCSCARGYTLADNGKACIPTGPYPCGKQTLER
chain 2: SVAQATSSSGEAPDSITWKPYDAADLDPTENPFDLLDFNQTQPERGDNNLTRIVGGQECKDGECPWQALLINEENEGFCGGTILSEFYILTAAHCLYQAKRFKVRVGDRNTEQEEGGEAVHEVEVVIKHNRFTKETYDFDIAVLRLKTPITFRMNVAPACLPERDWAESTLMTQKTGIVSGFGRTHEKGRQSTRLKMLEVPYVDRNSCKLSSSFIITQNMFCAGYDTKQEDACQGDSGGPHVTRFKDTYFVTGIVSWGEGCARKGKYGIYTKVTAFLKWIDRSMKTRGLPKAKSHAPEVITSSPLK

How the values were obtained:
thrombin [1] = tested on: thrombin
thrombin [2] = target: thrombin; remark: listed apart in the source

Molecule | appearance of FXa after incubation with thrombin (Pefachrome FXa8595 hydrolysis at 405 nm) (thrombin [1]) | appearance of FXa after incubation with thrombin (Pefachrome FXa8595 hydrolysis at 405 nm) (thrombin [2])
FX-WT (human factor X from an optimized nucleotide sequence, with C-terminal HPC4 tag) | the plasma and WT FXs being negative since they do not have a thrombin recognition site | –
B1 | – | the plasma and WT FXs being negative since they do not have a thrombin recognition site
